Test results as given in paper PMC5435866.

What was measured:
Test in all cases: EMSA
Drosophila SLBP 4S-4A = biological target: T1, Drosophila SLBP 4S-4A (UniProt Q9VAN6 1-276, S269A;S271A;S273A;S275A)
T1 sequence: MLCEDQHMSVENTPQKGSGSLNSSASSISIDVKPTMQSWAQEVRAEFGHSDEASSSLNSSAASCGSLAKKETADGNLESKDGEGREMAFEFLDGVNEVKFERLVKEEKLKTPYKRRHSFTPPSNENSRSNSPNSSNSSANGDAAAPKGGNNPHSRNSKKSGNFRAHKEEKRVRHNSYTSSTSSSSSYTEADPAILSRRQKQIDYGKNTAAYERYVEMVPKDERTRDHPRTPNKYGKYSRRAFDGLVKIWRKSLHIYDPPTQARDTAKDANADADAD

Drosophila SLBP ER = biological target: T2, Drosophila SLBP ER (UniProt Q9VAN6 1-276, A210G;E212Q;R213C)
T2 sequence: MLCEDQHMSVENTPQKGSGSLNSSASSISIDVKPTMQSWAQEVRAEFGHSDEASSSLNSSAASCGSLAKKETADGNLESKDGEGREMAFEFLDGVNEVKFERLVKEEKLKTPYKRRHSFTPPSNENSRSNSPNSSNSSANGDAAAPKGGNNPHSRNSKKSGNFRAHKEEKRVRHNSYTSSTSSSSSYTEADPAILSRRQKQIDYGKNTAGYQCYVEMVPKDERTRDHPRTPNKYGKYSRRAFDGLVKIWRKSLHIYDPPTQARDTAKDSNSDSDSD

Drosophila SLBP 4S-4E = biological target: T3, Drosophila SLBP 4S-4E (UniProt Q9VAN6 1-276, S269E;S271E;S273E;S275E)
T3 sequence: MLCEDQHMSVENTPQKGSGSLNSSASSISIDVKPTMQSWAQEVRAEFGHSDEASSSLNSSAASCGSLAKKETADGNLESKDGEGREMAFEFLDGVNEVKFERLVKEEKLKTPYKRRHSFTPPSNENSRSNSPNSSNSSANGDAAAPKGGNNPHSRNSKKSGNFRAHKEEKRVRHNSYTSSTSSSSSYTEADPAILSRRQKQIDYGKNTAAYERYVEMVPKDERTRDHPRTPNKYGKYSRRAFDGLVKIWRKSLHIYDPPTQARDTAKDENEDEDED

Measured: binding result

GUGCCAAAAAGGCUCUUUUCAGAGCCACCCA (structured_RNA) [SL RNA]
binds: all assays above
